As usually defined, the Kd is the concentration at which binding is half-saturated.

We go through 3 molecules from PMC5086636 (Toxins, 2016).

The target of one assay is Synaptotagmin-II 8-61 (UniProt P29101). Nature of the assay: ITC. As to conditions: cited from earlier work.
Assay [1] concerns the target T1, Syt-II_(40-60) peptide (amino acid residues 40-60 of the mouse synaptotagmin protein) (mouse).
T1 peptide: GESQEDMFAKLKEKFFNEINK
Nature of the assay: BLI; Octet Red; […]; 25 °C; PBS + 0.02% Tween 20, 1% BSA, 0.05% azide; […]. As to conditions: one partner purified. For orientation: Biolayer interferometry detects binding as a change in optical thickness at a sensor tip.

For assay [2], the target named is Synaptotagmin-II 40-60, P29101.

Values joined by “and” are separate entries in the source; they are usually repeats but may differ in a detail not shown here. Equal values may be shown once.

Chain of Synaptotagmin-II 40-60, P29101 (P29101 40-60): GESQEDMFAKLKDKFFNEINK
Chain of Synaptotagmin-II 8-61 (P29101 8-61): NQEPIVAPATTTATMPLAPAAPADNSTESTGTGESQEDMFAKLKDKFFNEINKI

With BoNT/B 858-1291 (from UniProt P10844), the Kd with Synaptotagmin-II 8-61 is 34 nM.

B1: Botulinum neurotoxin type B (natural protein)
chain: MPVTINNFNYNDPIDNNNIIMMEPPFARGTGRYYKAFKITDRIWIIPERYTFGYKPEDFNKSSGIFNRDVCEYYDPDYLNTNDKKNIFLQTMIKLFNRIKSKPLGEKLLEMIINGIPYLGDRRVPLEEFNTNIASVTVNKLISNPGEVERKKGIFANLIIFGPGPVLNENETIDIGIQNHFASREGFGGIMQMKFCPEYVSVFNNVQENKGASIFNRRGYFSDPALILMHELIHVLHGLYGIKVDDLPIVPNEKKFFMQSTDAIQAEELYTFGGQDPSIITPSTDKSIYDKVLQNFRGIVDRLNKVLVCISDPNININIYKNKFKDKYKFVEDSEGKYSIDVESFDKLYKSLMFGFTETNIAENYKIKTRASYFSDSLPPVKIKNLLDNEIYTIEEGFNISDKDMEKEYRGQNKAINKQAYEEISKEHLAVYKIQMCKSVKAPGICIDVDNEDLFFIADKNSFSDDLSKNERIEYNTQSNYIENDFPINELILDTDLISKIELPSENTESLTDFNVDVPVYEKQPAIKKIFTDENTIFQYLYSQTFPLDIRDISLTSSFDDALLFSNKVYSFFSMDYIKTANKVVEAGLFAGWVKQIVNDFVIEANKSNTMDKIADISLIVPYIGLALNVGNETAKGNFENAFEIAGASILLEFIPELLIPVVGAFLLESYIDNKNKIIKTIDNALTKRNEKWSDMYGLIVAQWLSTVNTQFYTIKEGMYKALNYQAQALEEIIKYRYNIYSEKEKSNINIDFNDINSKLNEGINQAIDNINNFINGCSVSYLMKKMIPLAVEKLLDFDNTLKKNLLNYIDENKLYLIGSAEYEKSKVNKYLKTIMPFDLSIYTNDTILIEMFNKYNSEILNNIILNLRYKDNNLIDLSGYGAKVEVYDGVELNDKNQFKLTSSANSKIRVTQNQNIIFNSVFLDFSVSFWIRIPKYKNDGIQNYIHNEYTIINCMKNNSGWKISIRGNRIIWTLIDINGKTKSVFFEYNIREDISEYINRWFFVTITNNLNNAKIYINGKLESNTDIKDIREVIANGEIIFKLDGDIDRTQFIWMKYFSIFNTELSQSNIEERYKIQSYSEYLKDFWGNPLMYNKEYYMFNAGNKNSYIKLKKDSPVGEILTRSKYNQNSKYINYRDLYIGEKFIIRRKSNSQSINDDIVRKEDYIYLDFFNLNQEWRVYTYKYFKKEEEKLFLAPISDSDEFYNTIQIKEYDEQPTYSCQLLFKKDEESTDEIGLIGIHRFYESGIVFEEYKDYFCISKWYLKEVKRKPYNLKLGCNWQFIPKDEGWTE
Regarding B1, in assay [1], the “KD of the first, rapid step (2:1 heterogeneous ligand model)” value worked out at 90 nM and the “KD of the second, slow step (2:1 heterogeneous ligand model)” value was determined as 20 nM.

B2: BoNT/B, P10844 (protein)
chain: PVTINNFNYNDPIDNNNIIMMEPPFARGTGRYYKAFKITDRIWIIPERYTFGYKPEDFNKSSGIFNRDVCEYYDPDYLNTNDKKNIFLQTMIKLFNRIKSKPLGEKLLEMIINGIPYLGDRRVPLEEFNTNIASVTVNKLISNPGEVERKKGIFANLIIFGPGPVLNENETIDIGIQNHFASREGFGGIMQMKFCPEYVSVFNNVQENKGASIFNRRGYFSDPALILMHELIHVLHGLYGIKVDDLPIVPNEKKFFMQSTDAIQAEELYTFGGQDPSIITPSTDKSIYDKVLQNFRGIVDRLNKVLVCISDPNININIYKNKFKDKYKFVEDSEGKYSIDVESFDKLYKSLMFGFTETNIAENYKIKTRASYFSDSLPPVKIKNLLDNEIYTIEEGFNISDKDMEKEYRGQNKAINKQAYEEISKEHLAVYKIQMCKSVKAPGICIDVDNEDLFFIADKNSFSDDLSKNERIEYNTQSNYIENDFPINELILDTDLISKIELPSENTESLTDFNVDVPVYEKQPAIKKIFTDENTIFQYLYSQTFPLDIRDISLTSSFDDALLFSNKVYSFFSMDYIKTANKVVEAGLFAGWVKQIVNDFVIEANKSNTMDKIADISLIVPYIGLALNVGNETAKGNFENAFEIAGASILLEFIPELLIPVVGAFLLESYIDNKNKIIKTIDNALTKRNEKWSDMYGLIVAQWLSTVNTQFYTIKEGMYKALNYQAQALEEIIKYRYNIYSEKEKSNINIDFNDINSKLNEGINQAIDNINNFINGCSVSYLMKKMIPLAVEKLLDFDNTLKKNLLNYIDENKLYLIGSAEYEKSKVNKYLKTIMPFDLSIYTNDTILIEMFNKYNSEILNNIILNLRYKDNNLIDLSGYGAKVEVYDGVELNDKNQFKLTSSANSKIRVTQNQNIIFNSVFLDFSVSFWIRIPKYKNDGIQNYIHNEYTIINCMKNNSGWKISIRGNRIIWTLIDINGKTKSVFFEYNIREDISEYINRWFFVTITNNLNNAKIYINGKLESNTDIKDIREVIANGEIIFKLDGDIDRTQFIWMKYFSIFNTELSQSNIEERYKIQSYSEYLKDFWGNPLMYNKEYYMFNAGNKNSYIKLKKDSPVGEILTRSKYNQNSKYINYRDLYIGEKFIIRRKSNSQSINDDIVRKEDYIYLDFFNLNQEWRVYTYKYFKKEEEKLFLAPISDSDEFYNTIQIKEYDEQPTYSCQLLFKKDEESTDEIGLIGIHRFYESGIVFEEYKDYFCISKWYLKEVKRKPYNLKLGCNWQFIPKDEGWTE
With B2, the Kd in assay [2] is 20 nM and 90 nM.
